Legend:
Details in all cases: both partners purified
[1] = target: T1, Hs CAF40 ARM domain (residues 19–285) (human, UniProt Q92600 19-285); test: pull-down; in vitro MBP pulldown: purified MBP-tagged Roquin fragments (40 μg) with equimolar purified CCR4-NOT proteins or subcomplexes on amylose resin; 50 mM HEPES-NaOH pH 7.5, 200 mM NaCl, 2 mM DTT; 1 h; maltose elution, SDS-PAGE, Coomassie
T1 construct: CAF40 (CNOT9) armadillo repeat domain, human, residues 19–285; also called CNOT9; purified CAF40 protein; source: E. coli BL21 (DE3) Star, purified (IMAC, heparin, gel filtration)
T1 sequence (Q92600 19-285): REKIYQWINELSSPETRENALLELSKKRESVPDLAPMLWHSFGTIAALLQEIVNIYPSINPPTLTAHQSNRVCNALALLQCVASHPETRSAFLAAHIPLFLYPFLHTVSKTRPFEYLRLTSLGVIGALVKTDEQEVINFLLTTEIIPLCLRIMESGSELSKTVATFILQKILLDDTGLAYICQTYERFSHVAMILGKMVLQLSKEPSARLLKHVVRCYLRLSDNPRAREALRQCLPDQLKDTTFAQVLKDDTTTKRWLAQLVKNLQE

[2] = target: T2, Hs NOT module (NOT1-SHD, NOT2-C, NOT3-C) (human, UniProt A5YKK6 1833-2361; Q9NZN8 350-540; O75175 607-748); test: as above
T2 construct: NOT1 superfamily homology domain (SHD), human, residues 1833–2361; NOT2-C, human, residues 350–540; NOT3-C, human, residues 607–748; also called NOT1-2-3; source: E. coli, purified as previously described; copies: + +
T2 sequence (A5YKK6 1833-2361, chain 1 of 3): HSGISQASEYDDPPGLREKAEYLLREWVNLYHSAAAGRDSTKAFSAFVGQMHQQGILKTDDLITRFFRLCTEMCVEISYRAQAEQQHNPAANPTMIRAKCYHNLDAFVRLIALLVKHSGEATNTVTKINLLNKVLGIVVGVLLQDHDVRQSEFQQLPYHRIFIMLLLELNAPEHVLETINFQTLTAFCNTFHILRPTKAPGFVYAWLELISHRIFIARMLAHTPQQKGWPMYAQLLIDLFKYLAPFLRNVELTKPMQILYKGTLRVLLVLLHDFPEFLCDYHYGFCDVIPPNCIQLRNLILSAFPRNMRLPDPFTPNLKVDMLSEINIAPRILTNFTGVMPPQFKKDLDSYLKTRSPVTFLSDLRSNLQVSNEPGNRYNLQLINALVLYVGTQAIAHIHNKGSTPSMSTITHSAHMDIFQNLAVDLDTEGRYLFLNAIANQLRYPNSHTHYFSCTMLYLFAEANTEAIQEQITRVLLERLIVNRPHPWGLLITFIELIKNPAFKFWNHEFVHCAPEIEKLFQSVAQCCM
T2 sequence (Q9NZN8 350-540, chain 2 of 3): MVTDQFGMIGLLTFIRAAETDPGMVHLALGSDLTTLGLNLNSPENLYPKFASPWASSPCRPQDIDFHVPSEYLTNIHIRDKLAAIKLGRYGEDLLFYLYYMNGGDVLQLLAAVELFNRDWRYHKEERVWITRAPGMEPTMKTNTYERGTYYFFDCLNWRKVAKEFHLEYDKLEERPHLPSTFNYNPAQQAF
T2 sequence (O75175 607-748, chain 3 of 3): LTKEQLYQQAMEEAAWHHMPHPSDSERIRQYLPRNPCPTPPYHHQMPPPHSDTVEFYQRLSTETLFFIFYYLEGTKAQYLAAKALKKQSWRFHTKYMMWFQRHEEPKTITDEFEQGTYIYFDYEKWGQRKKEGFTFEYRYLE

[3] = target: T1, Hs CAF40 ARM domain (residues 19–285); test: crystal structure; synthetic CBM peptide mixed with the purified Hs CAF40 ARM domain in an equimolar ratio; 0.1 M NaOAc pH 5.0, 17.5% PEG 4000, 0.1 M AmSO4, 18 °C; 2.15 Å

B1: MBP-tagged Dm Roq-CC (domain or fragment, Drosophila melanogaster, UniProt Q9VV48 702-819, looked up)
chain: NTGKDSANFVRSDSILDDDASTFDVPTGSSMLSIYGPICPKSSTTGNWNNFDLGYGGFKSDRNDSFNANKQQQPMWGRKPQLMSEDSFEGGIDSGMMLQLEKNLVDIVDPDDSGIKVD
notes: also called MBP-Roq-CC; not shown: MBP, N-terminal, kept
binding result [1]: binds
binding result [2]: binds

B2: MBP-tagged Dm Roquin CBM alone (peptide, UniProt Q9VV48 790-812, looked up)
chain: EGGIDSGMMLQLEKNLVDIVDPD
notes: source: E. coli BL21 (DE3) Star, purified; not shown: MBP, N-terminal, kept
binding result [1]: binds

B3: MBP-tagged Dm Roq-CN (domain or fragment, Drosophila melanogaster, UniProt Q9VV48 501-702, looked up)
chain: HYMGSPRGYLDPSLGLSPGGGLPPSHHSPITRLIVPSRYDSRFSGFGGGTPRIPSPREYQANPVAPTQRNANPPNFSVNSNLHKGYMLPASGGDVFHLANPWEQAYLAQQQHPPQHPQQQQPPSSKPNPSRPLSILPATADTSFFEKKPPNSVSIDLDRVPEVNVDAVPLFRRSNNNHNNNNSNSHNNNNNNHGSSLLFWNN
notes: as for B2
binding result [2]: binds

B4: Dm Roquin CBM peptide (residues 790–810) (peptide, UniProt Q9VV48 790-810, looked up)
peptide: EGGIDSGMMLQLEKNLVDIVD
notes: also called Dm CBM; source: synthetic peptide (EMC Microcollections)
binding result [3]: binds

Source: paper PMC5303829, “A CAF40-binding motif facilitates recruitment of the CCR4-NOT complex to mRNAs targeted by Drosophila Roquin” (Nature Communications, 2017)
